Here are results for one protein from article PMC3315643.

Substrate in data set [1]: O=C1C=CC(=O)C(Cl)=C1
Briefly: purified protein. Particulars: pH 5.0; 30.0 °C.

Substrate in data set [2]: O=C1C=CC(=O)C=C1
In words: purified protein. To be noted: pH 4.0; 30.0 °C.

B1: recPDH1 (recombinant pyranose dehydrogenase PDH1) (Macropsalliota meleagris) (protein)
chain: AITYQHPDDLPSGVDYDFIVAGGGTAGLVVASRLSENSNWKVLVIEAGPSNKDAFVTRVPGLASTLGAGSPIDWNYTTIPQDGLDGRSLDYPRAKILGGCSTHNGMVYTRGSKDDWNSWAGIIGDQGLGWDSILPAIKKAEKFTQDFTDQSVKGHIDPSVHGFDGKLSVSAAYSNISFNDLLFETTKELNAEFPFKLDMNDGKPIGLGWTQYTIDNHAERSSSATSYLESTGDNVHVLVNTLVTRVLSASGNGTDFRKVEFAVDANSPKKQLEAKKEVIVAGGVIASPQILMNSGIGERKVLQAVGIDTLIDNPSVGKNLSDQGATSVMFDTTLPSTDFDVDAALTEWTNSHTGPLARGARLNHLTFVRLPDDKLNGQDPSSGKNSPHIEFQFAQITPQVPTLGVPKQAPLPAANSYRLLLQLAVVNLYSISRGSISLSDNNPFTYPLIDLNMFKEDIDIAILREGIRSAGRMFSSKAFKNSVNKFVYPPADATSDEDLDAFLRSSTFSYVHGVGTLSMSPKGASWGVVNPDFKVKGTSGLRVVDASVIPHAPAAHTQLPVYAFAEYASALIAKSYN
As for B1, the Km (as a rule, the substrate concentration at which the rate is half of its maximum) in “purified protein [1]” stood at 620 ± 110 µM; in the data set “purified protein [2]”, 1380 ± 280 µM. In addition, the values for the kcat/Km in the data set “purified protein [1]” and in “purified protein [2]” were 20900 M⁻¹ s⁻¹ and 54400 M⁻¹ s⁻¹, respectively.
